In patent publication US20250326840A1:

How the values were obtained:
[1] = target: human PD-L1 on HCC827 cells (human) (UniProt Q9NZQ7); experiment: FACS on HCC827 cells
[2] = target: PD-L1-his (QPP09) (human) (UniProt Q9NZQ7); experiment: ELISA, PD-L1 captured by coated anti-HIS antibody
PD-L1-his (QPP09) (human), sequence (Q9NZQ7 19-239 limits assumed): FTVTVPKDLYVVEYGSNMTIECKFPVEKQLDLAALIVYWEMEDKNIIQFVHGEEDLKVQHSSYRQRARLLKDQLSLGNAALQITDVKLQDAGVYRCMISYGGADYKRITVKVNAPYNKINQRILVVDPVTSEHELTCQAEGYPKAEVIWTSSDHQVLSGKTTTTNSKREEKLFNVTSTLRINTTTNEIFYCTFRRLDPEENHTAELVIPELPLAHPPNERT

human PD-L1 on HCC827 cells (human), sequence (Q9NZQ7 19-290): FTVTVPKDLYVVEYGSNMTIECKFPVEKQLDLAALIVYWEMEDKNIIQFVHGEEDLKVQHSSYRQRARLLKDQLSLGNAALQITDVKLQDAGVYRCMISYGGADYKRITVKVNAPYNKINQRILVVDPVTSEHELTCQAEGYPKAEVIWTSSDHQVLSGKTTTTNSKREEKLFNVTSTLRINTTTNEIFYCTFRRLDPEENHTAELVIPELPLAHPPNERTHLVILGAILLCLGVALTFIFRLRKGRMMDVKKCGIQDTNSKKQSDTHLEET

Tecentriq (antibody) gave an EC50 [1] of 0.109 nM and an EC50 [2] of 0.0919 nM.
